Measurements taken from paper PMC4423205.

Key:
Assay in all cases: SPR
Conditions in all cases: all L-ribonucleotides (L-RNA, mirror image); SPR (Biacore 2000), chemokine immobilized on CM4/CM5, physiological running buffer, 37 C; complex formation in 20 mM HEPES pH 7.4, 100 mM NaCl, 5 mM KCl, 1 mM …
[1] = target: T1, CCL8 (MCP-2) (Homo sapiens) (UniProt P80075)
T1 sequence: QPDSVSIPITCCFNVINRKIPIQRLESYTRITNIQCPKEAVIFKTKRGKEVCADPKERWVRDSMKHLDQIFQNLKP

[2] = target: CCL2 S63Y S86Y (Homo sapiens) (UniProt P13500)
[3] = target: CCL2 (MCP-1), wild type (Homo sapiens) (UniProt P13500)
[4] = target: CCL2 R24A R47A (Homo sapiens) (UniProt P13500)
[5] = target: CCL2 S21P S44P (Homo sapiens) (UniProt P13500)
[6] = target: CCL2 R18A R41A (Homo sapiens) (UniProt P13500)
[7] = target: CCL2 S63F S86F (Homo sapiens) (UniProt P13500)
[8] = target: CCL2 K19A K42A (Homo sapiens) (UniProt P13500)
[9] = target: CCL13 (MCP-4) (Homo sapiens) (UniProt Q99616)
[10] = target: CCL11 (eotaxin) (Homo sapiens) (UniProt P51671)
CCL11 (eotaxin) (Homo sapiens), sequence (P51671 24-97): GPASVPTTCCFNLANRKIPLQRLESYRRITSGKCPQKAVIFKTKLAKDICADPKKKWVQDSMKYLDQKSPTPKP

CCL2 S21P S44P (Homo sapiens), sequence (P13500 24-99 S44P): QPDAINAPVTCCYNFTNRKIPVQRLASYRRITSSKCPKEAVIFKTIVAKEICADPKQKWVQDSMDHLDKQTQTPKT
CCL2 S63Y S86Y (Homo sapiens), sequence (P13500 24-99 S86Y): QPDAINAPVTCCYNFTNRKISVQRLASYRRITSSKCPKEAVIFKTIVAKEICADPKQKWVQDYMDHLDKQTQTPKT
CCL2 (MCP-1), wild type (Homo sapiens), sequence (P13500 24-99): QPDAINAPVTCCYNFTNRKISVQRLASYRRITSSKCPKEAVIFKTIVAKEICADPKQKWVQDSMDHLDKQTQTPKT
CCL2 R24A R47A (Homo sapiens), sequence (P13500 24-99 R47A): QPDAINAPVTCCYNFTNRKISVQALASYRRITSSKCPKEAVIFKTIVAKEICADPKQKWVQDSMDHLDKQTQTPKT
CCL2 R18A R41A (Homo sapiens), sequence (P13500 24-99 R41A): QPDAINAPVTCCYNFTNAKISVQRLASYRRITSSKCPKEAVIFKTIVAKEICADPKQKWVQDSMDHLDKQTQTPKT
CCL2 K19A K42A (Homo sapiens), sequence (P13500 24-99 K42A): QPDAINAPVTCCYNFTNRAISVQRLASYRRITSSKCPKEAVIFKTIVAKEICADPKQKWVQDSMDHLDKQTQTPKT
CCL2 S63F S86F (Homo sapiens), sequence (P13500 24-99 S86F): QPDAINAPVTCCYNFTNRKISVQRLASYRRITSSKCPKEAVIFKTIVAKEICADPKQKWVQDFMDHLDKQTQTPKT
CCL13 (MCP-4) (Homo sapiens), sequence (Q99616 24-98): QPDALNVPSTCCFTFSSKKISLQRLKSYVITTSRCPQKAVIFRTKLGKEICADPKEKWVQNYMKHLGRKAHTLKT

Sequence “GCACGUCCCUCACCGGUGCAAGUGAAGCCGUGGCUCUGCG [NOX-E36 L-aptamer (Spiegelmer, without PEG)]” has a Kd [1] of 3.35 nM, a Kd [2] of 74.4 nM and a Kd [3] of 1.32 nM. The Kd [4] was 8280 nM, the Kd [5] was 7.94 nM and the Kd [6] was 14.1 nM. The Kd [7] was 54.4 nM, the Kd [8] was 4130 nM and the Kd [9] was 22 nM. For the same sequence, the Kd [10] was 3.06 nM.
